# Measurements published in IntAct's records for PubMed 33758649.
# B1: Protein PALS1 (Homo sapiens), Q8N3R9 (parent)
# chain: MTTSHMNGHVTEESDSEVKNVDLASPEEHQKHREMAVDCPGDLGTRMMPIRRSAQLERIRQQQEDMRRRREEEGKKQELDLNSSMRLKKLAQIPPKTGIDNPMFDTEEGIVLESPHYAVKILEIEDLFSSLKHIQHTLVDSQSQEDISLLLQLVQNKDFQNAFKIHNAITVHMNKASPPFPLISNAQDLAQEVQTVLKPVHHKEGQELTALLNTPHIQALLLAHDKVAEQEMQLEPITDERVYESIGQYGGETVKIVRIEKARDIPLGATVRNEMDSVIISRIVKGGAAEKSGLLHEGDEVLEINGIEIRGKDVNEVFDLLSDMHGTLTFVLIPSQQIKPPPAKETVIHVKAHFDYDPSDDPYVPCRELGLSFQKGDILHVISQEDPNWWQAYREGDEDNQPLAGLVPGKSFQQQREAMKQTIEEDKEPEKSGKLWCAKKNKKKRKKVLYNANKNDDYDNEEILTYEEMSLYHQPANRKRPIILIGPQNCGQNELRQRLMNKEKDRFASAVPHTTRSRRDQEVAGRDYHFVSRQAFEADIAAGKFIEHGEFEKNLYGTSIDSVRQVINSGKICLLSLRTQSLKTLRNSDLKPYIIFIAPPSQERLRALLAKEGKNPKPEELREIIEKTREMEQNNGHYFDTAIVNSDLDKAYQELLRLINKLDTEPQWVPSTWLR
# partner: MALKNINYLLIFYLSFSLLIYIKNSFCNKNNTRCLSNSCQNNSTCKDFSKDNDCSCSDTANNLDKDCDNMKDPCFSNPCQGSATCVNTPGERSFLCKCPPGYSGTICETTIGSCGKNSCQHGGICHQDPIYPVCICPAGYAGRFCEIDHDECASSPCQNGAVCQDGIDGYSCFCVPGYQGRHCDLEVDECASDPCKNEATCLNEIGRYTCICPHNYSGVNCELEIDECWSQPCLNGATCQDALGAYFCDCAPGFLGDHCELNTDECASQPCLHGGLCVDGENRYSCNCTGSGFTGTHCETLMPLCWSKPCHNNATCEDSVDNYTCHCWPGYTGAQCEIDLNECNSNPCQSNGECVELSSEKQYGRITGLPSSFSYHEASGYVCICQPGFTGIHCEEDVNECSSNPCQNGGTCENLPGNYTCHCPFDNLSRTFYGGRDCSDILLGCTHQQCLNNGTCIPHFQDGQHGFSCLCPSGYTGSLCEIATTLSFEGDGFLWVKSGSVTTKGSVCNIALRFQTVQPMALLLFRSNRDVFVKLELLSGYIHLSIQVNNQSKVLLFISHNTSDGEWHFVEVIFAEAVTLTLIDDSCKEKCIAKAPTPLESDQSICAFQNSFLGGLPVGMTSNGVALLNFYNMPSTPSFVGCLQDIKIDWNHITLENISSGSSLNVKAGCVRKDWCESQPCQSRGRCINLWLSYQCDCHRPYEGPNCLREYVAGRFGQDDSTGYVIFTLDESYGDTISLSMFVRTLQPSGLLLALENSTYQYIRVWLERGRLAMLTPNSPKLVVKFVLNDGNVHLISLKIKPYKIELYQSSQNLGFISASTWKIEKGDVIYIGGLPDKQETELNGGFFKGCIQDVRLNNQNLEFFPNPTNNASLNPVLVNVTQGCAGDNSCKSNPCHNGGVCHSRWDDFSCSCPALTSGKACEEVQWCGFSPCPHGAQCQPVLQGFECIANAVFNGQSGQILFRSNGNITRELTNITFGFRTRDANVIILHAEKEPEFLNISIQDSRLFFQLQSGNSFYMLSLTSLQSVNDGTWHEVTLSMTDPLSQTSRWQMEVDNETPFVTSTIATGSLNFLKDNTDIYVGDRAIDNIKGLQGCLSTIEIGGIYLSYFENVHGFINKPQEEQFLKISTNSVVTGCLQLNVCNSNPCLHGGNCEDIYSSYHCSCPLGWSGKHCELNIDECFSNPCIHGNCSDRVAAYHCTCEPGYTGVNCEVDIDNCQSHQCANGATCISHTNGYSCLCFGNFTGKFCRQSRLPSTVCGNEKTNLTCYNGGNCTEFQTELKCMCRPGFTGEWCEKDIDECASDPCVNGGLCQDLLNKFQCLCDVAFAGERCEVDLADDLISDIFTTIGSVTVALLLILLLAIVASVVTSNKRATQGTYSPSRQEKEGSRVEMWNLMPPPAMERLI
# Variants of: B1
# Conditions: with crum1_human CRB1, P82279
row,Variant,effect of a mutation on the interaction
1,F318W,decreasing interaction strength
